Laboratory results reported in US20230090311A1, “SELF-ASSEMBLING, SELF-A[…] FOR […] OF VACCINES” (THE UNIVERSITY OF QUEENSLAND, priority 2020, published 2023).
Values joined by “and” are separate entries in the source; they are usually repeats but may differ in a detail not shown here. Equal values may be shown once. “Also recorded” adds a separate entry of the source. No end group written: not given here.

What was measured:
[1] = Characterisation of nanoliposomes by DLS, Example 2; assay type: physicochemical
Description: The particle size, zeta potential and polydispersity of vaccine candidates were measured by dynamic light scattering (DLS) using zetasizer (Nano ZX, Marvern, England). The particle morphology of vaccine candidates was examined using transmission electron microscope (TEM) (HT7700 Exalens, HITACHI Ltd., Japan) after vacuum-drying. Briefly, the sample were diluted in pure distilled water (1:100) and dropped directly on a glow-discharged carbon coated copper grid and then stained with 2% uranyl acetate.

[2] = test system: E749-57 (RAHYNIVTF) peptide-specific CD8+ T-cell response; test: IFN-gamma ELISPOT assay; assay type: in vivo, C57BL/6 mice; conditions: splenocytes ten days after immunisation, restimulated with E7 peptide
Description: The mice received single dose of vaccine.
ELISPOT plates were coated with 5 μg mL-1 IFN-g capture antibody (clone) in PBS at 4° C. overnight. The plates were then blocked with RPM/20% FCs at room temperature for 3 hours. Splenocytes from C57/BL/6 mice were harvested from the spleens of naïve and immunised mice. The red blood cells were depleted using red blood cell lysing buffer (0.155 M ammonium chloride in 0.01 M Tris-HCl buffer, Sigma). Splenocytes were then resuspended in RPMI (sigma) supplemented with 20% FACs (100 UmL-1 penicillin and 100 μg mL-1 streptomycin and 50 μM b-mercaptoethanol. The cells were plated at 5×10^5 cells per well in triplicate on ELISPOT plates. E7 peptide (10 μg mL-1) was added alongside 10 ng mL-1 rhIL-2 to a final volume of 200 μL per well. Plates were incubated for 8 hours at 37 C, washed and biotinylated IFN-g detection antibody in 1% BSA added at room temperature, plates were washed again and bound cytokine was visualised with 3-amino-9ethylcarbozole. Spots were counted with an ELISPOT reader.

TC-1 tumour cells = test: In vivo tumour treatment experiments
[3] = Dynamic Light Scattering, Example 5; assay type: physicochemical; conditions: for Polydispersity index (PDI): DLS; for Particle size (nm) DLS: size as measured by intensity, 1-4 1 mg/mL, 5-11 2 mg/mL in PBS
Description: Dynamic Light Scattering. Individual compounds 1-4 (1 mg/mL in PBS) and 5-11 (2 mg/mL in PBS) were analyzed using DLS to measure particle size (zeta intensity) and PDI. The samples were treated with ultrasonication for 30 min, then transferred into disposable cuvettes. Measurement were taken at 25° C. and […] light scattering. DLS measurements were taken using a Zetasizer Nano ZP instrument (Malvern Instrument, UK) with Malvern Zetasizer Analyser 6.2 software.

[4] = Transmission Electron Microscopy, Example 5; assay type: physicochemical; conditions: negative staining; NP = nanoparticles, CLANs = chain like aggregates of nanoparticles
Description: Transmission Electron Microscopy. Particle-imaging was captured using a JEM-1010 TEM (HT7700 Exalens, HITACHI Ltd., JEOL Ltd., Japan) operated at 80 kV, using negative staining. Samples of compounds 1-11 (1:2 dilution of samples prepared for DLS analysis) were applied to glow-discharged carbon-coated copper 200-mesh grids (Ted Pella) and negative-stained with 2% phosphotungstic acid.

p145 = conditions: second animal study
RBD = conditions: 30 μg with CFA, single s.c. immunization; serum day 14
B1 = conditions: 30 μg with CFA, single s.c. immunization
J8 = assay type: in vivo, C57BL/6 mice; conditions: first animal study (epitope arrangement); 50 μg s.c., days 0, 21, 28, 35; listed as Conjugate 3

Substance: LLLLLLLLLLQAEPDRAHYNIVTF [Leu-8Qm]
- PDI ([1]; DLS): 0.6 and 0.6 ± 0.1
- Size ([1]; DLS): 4000 ± 150 nm
- Charge ([1]; zeta potential): −10 mV and −10 ± 5 mV
- IFN-gamma production (ELISPOT) [2]: significantly produced IFN levels
- survival of tumour-bearing mice (TC-1 tumour cells; single dose 100 μg on day 7 after TC-1 inoculation): increased survival rate of tumour infected mice
- day by which tumours of all mice exceeded 1 cm^3 (TC-1 tumour cells; single dose on day 7 after TC-1 inoculation): 57 days

Substance: Ac-(Ser)15-PADRE-J8 (Ac-SSSSSSSSSSSSSSSAKFVAAWTLKAAAQAEDKVKQSREAKKQVEKALKQLEDKVQ) [Compound 10]
- Polydispersity index (PDI) [3]: 0.31 ± 0.02
- Particle size (nm) DLS [3]: 240 ± 9 nm
- Particle size (nm) TEM [4]: 10-90 nm NP and CLANs

Substance: AKFVAAWTLKAAAQAEDKVKQSREAKKQVEKALKQLEDKVQ [Compound 1]
- p145-specific serum IgG antibodies (p145): less efficient or completely unable to recognize p145

Substance: AIHADQLTPTWRVYSTG [Compound B1]
- anti-RBD IgG (RBD): did not generate anti-RBD IgG
- antibody titers against the epitope itself (B1): did not generate significant antibody titers against itself

Substance: Ac-(Leu)15-PADRE-K-J8 (Ac-LLLLLLLLLLLLLLLAKFVAAWTLKAAAKQAEDKVKQSREAKKQVEKALKQLEDKVQ) [Compound 3]
- J8-specific serum IgG antibody titers (J8): significant immunoglobulin G (IgG) titers after the primary immunization; also recorded: higher antibody titers than the previously identified lead vaccine candidate (2)

Substance: Ac-(Phe-Leu-Ala)5-PADRE-J8 (Ac-FLAFLAFLAFLAFLAAKFVAAWTLKAAAQAEDKVKQSREAKKQVEKALKQLEDKVQ) [Compound 11]
- Polydispersity index (PDI) [3]: 0.44 ± 0.02
- Particle size (nm) DLS [3]: 255 ± 9 nm
- Particle size (nm) TEM [4]: 10-20 nm NP and CLANs
